This note sets out measurements from patent US20210246166A1 (Bayer, published 2021).

Numbered stars: 1 amine (or outer) side, 2 acyl side, 3 side chain; on linkers, the order of the positions; unused ones are H or OH. Bridge positions count the residues as written; N and C are the ends. Square brackets hold non-standard residues; d marks the D form. Primed or numbered codes have the meaning given here. Ends that are not written are not given here. * marks the point of attachment. X13 = (2S)‑2‑amino‑3‑(1-methylcyclopropyl)propanoic acid, CC1(C[C@H](N[*:1])C(=O)[*:2])CC1; Tranexamic″ = tranexamic acid, NC[C@H]1CC[C@@H](C(=O)*)CC1; X5 = Tetrahydropyranyl‑4‑acetic acid, O=C(CC1CCOCC1)*; Phe(2,5-diF) = O=C([C@H](Cc1cc(F)ccc1F)N[*:1])[*:2]; Oic = O=C(O)[C@@H]1C[C@@H]2CCCC[C@@H]2N1; Cyclobutylacetic = O=C(CC1CCC1)*; tBuAla = CC(C)(C)C[C@H](N)C(=O)O; Pen = CC(C)(S)[C@H](N)C(=O)O; ΔPro = O=C(O)[C@@H]1C=CCN1; NMeC = CN[C@@H](CS)C(=O)O; Ac4c = NC1(C(=O)O)CCC1; Sar = CNCC(=O)O

The labels stand for the following.
B1: Example 208: (ACBA)-IC+SRS-((tBu)A)-PPI-(Pen)+I-NH2 (peptide)
peptide: [Ac4c]ICSRS[tBuAla]PPI[Pen]I-NH2
modifications: disulfide 3-11; N-terminus assumed
SMILES: CC[C@H](C)[C@H](NC(=O)[C@H]1NC(=O)[C@H]([C@@H](C)CC)NC(=O)[C@@H]2CCCN2C(=O)[C@@H]2CCCN2C(=O)[C@H](CC(C)(C)C)NC(=O)[C@H](CO)NC(=O)[C@H](CCCNC(=N)N)NC(=O)[C@H](CO)NC(=O)[C@@H](NC(=O)[C@@H](NC(=O)C2(N)CCC2)[C@@H](C)CC)CSSC1(C)C)C(N)=O
B2: Example 237: AIC+SRSL-(L-dehydroproline)-(Oic)-I-(Pen)+IPD-OH (peptide)
peptide: AICSRSL[ΔPro][Oic]I[Pen]IPD-OH
modifications: disulfide 3-11; N-terminus assumed
SMILES: CC[C@H](C)[C@H](NC(=O)[C@H](C)N)C(=O)N[C@H]1CSSC(C)(C)[C@@H](C(=O)N[C@H](C(=O)N2CCC[C@H]2C(=O)N[C@@H](CC(=O)O)C(=O)O)[C@@H](C)CC)NC(=O)[C@H]([C@@H](C)CC)NC(=O)[C@@H]2C[C@@H]3CCCC[C@@H]3N2C(=O)[C@@H]2C=CCN2C(=O)[C@H](CC(C)C)NC(=O)[C@H](CO)NC(=O)[C@H](CCCNC(=N)N)NC(=O)[C@H](CO)NC1=O
B3: Example 269: (Tranexamic)-IC+SRS-((tBu)A)-PPI-(Pen)+IP-NH2 (peptide)
peptide: {Tranexamic″}-ICSRS[tBuAla]PPI[Pen]IP-NH2
modifications: disulfide 2-10
SMILES: CC[C@H](C)[C@@H]1NC(=O)[C@@H]2CCCN2C(=O)[C@@H]2CCCN2C(=O)[C@H](CC(C)(C)C)NC(=O)[C@H](CO)NC(=O)[C@H](CCCNC(=N)N)NC(=O)[C@H](CO)NC(=O)[C@@H](NC(=O)[C@@H](NC(=O)[C@H]2CC[C@@H](CN)CC2)[C@@H](C)CC)CSSC(C)(C)[C@@H](C(=O)N[C@H](C(=O)N2CCC[C@H]2C(N)=O)[C@@H](C)CC)NC1=O
B4: Example 305: (Tetrahydropyranyl-4-acetic acid)-IC+SRS-((tBu)A)-PPI-((N-Me)C)+I-NH2 (peptide)
peptide: X5-ICSRS[tBuAla]PPI[NMeC]I-NH2
modifications: disulfide 2-10
SMILES: CC[C@H](C)[C@H](NC(=O)[C@@H]1CSSC[C@H](NC(=O)[C@@H](NC(=O)CC2CCOCC2)[C@@H](C)CC)C(=O)N[C@@H](CO)C(=O)N[C@@H](CCCNC(=N)N)C(=O)N[C@@H](CO)C(=O)N[C@@H](CC(C)(C)C)C(=O)N2CCC[C@H]2C(=O)N2CCC[C@H]2C(=O)N[C@@H]([C@@H](C)CC)C(=O)N1C)C(N)=O
B5: Example 271: ((N-Me)G)-IC+SRSLPPIC+IPD-NH2 (peptide)
peptide: [Sar]ICSRSLPPICIPD-NH2
modifications: disulfide 3-11; N-terminus assumed
SMILES: CC[C@H](C)[C@H](NC(=O)CNC)C(=O)N[C@H]1CSSC[C@@H](C(=O)N[C@H](C(=O)N2CCC[C@H]2C(=O)N[C@@H](CC(=O)O)C(N)=O)[C@@H](C)CC)NC(=O)[C@H]([C@@H](C)CC)NC(=O)[C@@H]2CCCN2C(=O)[C@@H]2CCCN2C(=O)[C@H](CC(C)C)NC(=O)[C@H](CO)NC(=O)[C@H](CCCNC(=N)N)NC(=O)[C@H](CO)NC1=O
B6: Example 212: GIC+SRS-((tBu)A)-P-(Oic)-I-((N-Me)C)+IPD-NH2 (peptide)
peptide: GICSRS[tBuAla]P[Oic]I[NMeC]IPD-NH2
modifications: disulfide 3-11; N-terminus assumed
SMILES: CC[C@H](C)[C@H](NC(=O)CN)C(=O)N[C@H]1CSSC[C@@H](C(=O)N[C@H](C(=O)N2CCC[C@H]2C(=O)N[C@@H](CC(=O)O)C(N)=O)[C@@H](C)CC)N(C)C(=O)[C@H]([C@@H](C)CC)NC(=O)[C@@H]2C[C@@H]3CCCC[C@@H]3N2C(=O)[C@@H]2CCCN2C(=O)[C@H](CC(C)(C)C)NC(=O)[C@H](CO)NC(=O)[C@H](CCCNC(=N)N)NC(=O)[C@H](CO)NC1=O
B7: Example 211: FIC+SRS-((tBu)A)-PPI-(Pen)+IPD-NH2 (peptide)
peptide: FICSRS[tBuAla]PPI[Pen]IPD-NH2
modifications: disulfide 3-11; N-terminus assumed
SMILES: CC[C@H](C)[C@H](NC(=O)[C@@H](N)Cc1ccccc1)C(=O)N[C@H]1CSSC(C)(C)[C@@H](C(=O)N[C@H](C(=O)N2CCC[C@H]2C(=O)N[C@@H](CC(=O)O)C(N)=O)[C@@H](C)CC)NC(=O)[C@H]([C@@H](C)CC)NC(=O)[C@@H]2CCCN2C(=O)[C@@H]2CCCN2C(=O)[C@H](CC(C)(C)C)NC(=O)[C@H](CO)NC(=O)[C@H](CCCNC(=N)N)NC(=O)[C@H](CO)NC1=O
B8: Example 267: ((N-Me)G)-IC+SRS-((2S)-2-amino-3-(1-methylcyclopropyl)propanoic acid)-P-(Oic)-I-(Pen)+IP-NH2 (peptide)
peptide: [Sar]ICSRS[X13]P[Oic]I[Pen]IP-NH2
modifications: disulfide 3-11; N-terminus assumed
SMILES: CC[C@H](C)[C@H](NC(=O)CNC)C(=O)N[C@H]1CSSC(C)(C)[C@@H](C(=O)N[C@H](C(=O)N2CCC[C@H]2C(N)=O)[C@@H](C)CC)NC(=O)[C@H]([C@@H](C)CC)NC(=O)[C@@H]2C[C@@H]3CCCC[C@@H]3N2C(=O)[C@@H]2CCCN2C(=O)[C@H](CC2(C)CC2)NC(=O)[C@H](CO)NC(=O)[C@H](CCCNC(=N)N)NC(=O)[C@H](CO)NC1=O
B9: Example 232: ((N-Me)G)-IC+SRSLPPI-((N-Me)C)+IPD-OH (peptide)
peptide: [Sar]ICSRSLPPI[NMeC]IPD-OH
modifications: disulfide 3-11; N-terminus assumed
SMILES: CC[C@H](C)[C@H](NC(=O)CNC)C(=O)N[C@H]1CSSC[C@@H](C(=O)N[C@H](C(=O)N2CCC[C@H]2C(=O)N[C@@H](CC(=O)O)C(=O)O)[C@@H](C)CC)N(C)C(=O)[C@H]([C@@H](C)CC)NC(=O)[C@@H]2CCCN2C(=O)[C@@H]2CCCN2C(=O)[C@H](CC(C)C)NC(=O)[C@H](CO)NC(=O)[C@H](CCCNC(=N)N)NC(=O)[C@H](CO)NC1=O
B10: Example 235: AIC+SRS-((2,5-Difluoro)F)-PPI-((N-Me)C)+IPD-NH2 (peptide)
peptide: AICSRS[Phe(2,5-diF)]PPI[NMeC]IPD-NH2
modifications: disulfide 3-11; N-terminus assumed
SMILES: CC[C@H](C)[C@H](NC(=O)[C@H](C)N)C(=O)N[C@H]1CSSC[C@@H](C(=O)N[C@H](C(=O)N2CCC[C@H]2C(=O)N[C@@H](CC(=O)O)C(N)=O)[C@@H](C)CC)N(C)C(=O)[C@H]([C@@H](C)CC)NC(=O)[C@@H]2CCCN2C(=O)[C@@H]2CCCN2C(=O)[C@H](Cc2cc(F)ccc2F)NC(=O)[C@H](CO)NC(=O)[C@H](CCCNC(=N)N)NC(=O)[C@H](CO)NC1=O
B11: Example 284: (Cyclobutylacetic)-IC+SRS-((tBu)A)-PPI-(Pen)+IP-NH2 (peptide)
peptide: Cyclobutylacetic-ICSRS[tBuAla]PPI[Pen]IP-NH2
modifications: disulfide 2-10
SMILES: CC[C@H](C)[C@H](NC(=O)CC1CCC1)C(=O)N[C@H]1CSSC(C)(C)[C@@H](C(=O)N[C@H](C(=O)N2CCC[C@H]2C(N)=O)[C@@H](C)CC)NC(=O)[C@H]([C@@H](C)CC)NC(=O)[C@@H]2CCCN2C(=O)[C@@H]2CCCN2C(=O)[C@H](CC(C)(C)C)NC(=O)[C@H](CO)NC(=O)[C@H](CCCNC(=N)N)NC(=O)[C@H](CO)NC1=O
B12: Example 281: ((N-Me)G)-IC+SRSLPPIC+IPD-OH (peptide)
peptide: [Sar]ICSRSLPPICIPD-OH
modifications: disulfide 3-11; N-terminus assumed
SMILES: CC[C@H](C)[C@H](NC(=O)CNC)C(=O)N[C@H]1CSSC[C@@H](C(=O)N[C@H](C(=O)N2CCC[C@H]2C(=O)N[C@@H](CC(=O)O)C(=O)O)[C@@H](C)CC)NC(=O)[C@H]([C@@H](C)CC)NC(=O)[C@@H]2CCCN2C(=O)[C@@H]2CCCN2C(=O)[C@H](CC(C)C)NC(=O)[C@H](CO)NC(=O)[C@H](CCCNC(=N)N)NC(=O)[C@H](CO)NC1=O
B13: Example 224: AIC+SRSLP-(Oic)-IC+IPD-NH2 (peptide)
peptide: AICSRSLP[Oic]ICIPD-NH2
modifications: disulfide 3-11; N-terminus assumed
SMILES: CC[C@H](C)[C@H](NC(=O)[C@H](C)N)C(=O)N[C@H]1CSSC[C@@H](C(=O)N[C@H](C(=O)N2CCC[C@H]2C(=O)N[C@@H](CC(=O)O)C(N)=O)[C@@H](C)CC)NC(=O)[C@H]([C@@H](C)CC)NC(=O)[C@@H]2C[C@@H]3CCCC[C@@H]3N2C(=O)[C@@H]2CCCN2C(=O)[C@H](CC(C)C)NC(=O)[C@H](CO)NC(=O)[C@H](CCCNC(=N)N)NC(=O)[C@H](CO)NC1=O

recombinant rat MASP2 active protease (amino acids 296-685, C-terminal His Tag), sequence (Q9JJS8 other isoform, or with tags, fused parts or gaps limits assumed): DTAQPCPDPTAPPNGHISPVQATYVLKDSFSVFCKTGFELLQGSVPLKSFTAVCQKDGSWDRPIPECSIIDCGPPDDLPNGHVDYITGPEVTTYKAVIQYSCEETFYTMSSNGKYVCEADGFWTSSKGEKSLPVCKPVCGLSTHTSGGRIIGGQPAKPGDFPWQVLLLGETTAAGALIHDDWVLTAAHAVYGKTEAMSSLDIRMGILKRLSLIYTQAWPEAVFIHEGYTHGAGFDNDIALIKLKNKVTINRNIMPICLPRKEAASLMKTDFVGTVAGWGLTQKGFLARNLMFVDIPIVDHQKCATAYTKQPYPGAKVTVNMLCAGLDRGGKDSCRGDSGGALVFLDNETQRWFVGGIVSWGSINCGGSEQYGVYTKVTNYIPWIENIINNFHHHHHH

One assay concerns the target recombinant rat MASP2 active protease (amino acids 296-685, C-terminal His Tag) (rat, UniProt Q9JJS8 296-685). The experiment in a line: cell-based or functional assay.
Turning to B1, the “rat MASP2 IC50” value was found to be 8.6 nM.
As for B2, the “rat MASP2 IC50” value came to 1000 nM.
On the same count and under the same terms, the value for B3 was 9.6 nM; that for B4 was 5.3 nM; that for B5 was 55.2 nM.
B6: the “rat MASP2 IC50” value was found to be 34.5 nM.
For {2‑(3-Pyridyl)acetic acid}-ICSRS[tBuAla]PPI[Pen]IP-NH2 (disulfide 2-10) [Example 226: (2-(3-Pyridyl)acetic acid)-IC+SRS-((tBu)A)-PPI-(Pen)+IP-NH2], the “rat MASP2 IC50” value is 2.9 nM.
The same measure, in the same setting: under B7 stands 23 nM.
Still for that read-out and setting: under B8 stands 42 nM; under B9, 125 nM; under B10, 29 nM.
For B11, the “rat MASP2 IC50” value came out at 9.7 nM.
With B12, the “rat MASP2 IC50” value is 308 nM.
Still for that read-out and setting: the value for B13 was 42.4 nM.

Another assay has as its target T1, recombinant rat MASP1 active protease (amino acids 302-704, C-terminal His Tag) (rat, UniProt Q8CHN8 302-704).
T1 sequence: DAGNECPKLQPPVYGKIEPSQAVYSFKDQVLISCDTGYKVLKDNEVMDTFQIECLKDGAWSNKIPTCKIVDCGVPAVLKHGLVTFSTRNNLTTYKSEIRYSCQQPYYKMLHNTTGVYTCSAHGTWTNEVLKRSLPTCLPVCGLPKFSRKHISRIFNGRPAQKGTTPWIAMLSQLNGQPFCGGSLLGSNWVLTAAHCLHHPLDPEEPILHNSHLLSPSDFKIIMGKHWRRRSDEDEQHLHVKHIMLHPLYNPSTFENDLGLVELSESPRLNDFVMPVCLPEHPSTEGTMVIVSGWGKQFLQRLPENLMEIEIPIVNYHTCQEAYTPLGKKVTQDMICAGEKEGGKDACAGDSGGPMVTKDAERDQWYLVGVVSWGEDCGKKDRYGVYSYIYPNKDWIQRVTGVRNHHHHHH
The experiment in a line: cell-based or functional assay.
For the molecule B1, the “rat MASP1 IC50” value worked out at 61 nM.
Still for that read-out and setting: under B2 stands 1000 nM; under B3, 120 nM; under B4, 76 nM.
Take B5: the “rat MASP1 IC50” value was 88.7 nM.
As for B6, the “rat MASP1 IC50” value was determined as 24.6 nM.
In the case of {2‑(3-Pyridyl)acetic acid}-ICSRS[tBuAla]PPI[Pen]IP-NH2 (disulfide 2-10) [Example 226: (2-(3-Pyridyl)acetic acid)-IC+SRS-((tBu)A)-PPI-(Pen)+IP-NH2], the “rat MASP1 IC50” value turned out to be 29 nM.
Same read-out and setting: the value for B7 was 75 nM; that for B8 was 130 nM.
On the same count and under the same terms, the value for B9 was 67.3 nM.
In the case of B10, the “rat MASP1 IC50” value was determined as 380 nM.
The same measure, in the same setting: under B11 stands 60 nM; under B12, 270 nM; under B13, 60.4 nM.
